Consider 2 molecules from publication PMC3923783, “Competitive and Cooperative Interactions Mediate RNA Transfer from Herpesvirus Saimiri ORF57 to the Mammalian Export Adaptor ALYREF” (PLoS Pathogens, 2014).

First the molecules themselves.
B1: ORF57^8–120 (domain or fragment)
chain: GISSDDDFDSSDSSSDEEESDTSPQIMKSDVTMASPPSTPEPSPDVSASTSNLKRERQRSPITWEHQSPLSRVYRSPSPMRFGKRPRISSNSTSRSCKTSWADRVREAAAQRR
notes: Herpesvirus saimiri (HVS) ORF57 protein, residues 8-120; Construct of the NMR and fluorescence experiments; It may be the same construct as the hexa-histidine ORF57^8–120; also called ORF57 aa8–120; ORF57(aa8–120); source: E. coli BL21-RP, purified (gel filtration), as described previously [30]
B2: ALYREF fragment aa1–155 (ALYREF^1–155) (domain or fragment)
chain: not shown
notes: source: E. coli BL21-RP, purified (gel filtration), as described previously [30]

The target of experiment [1] is B2. Briefly: other fluorescence titration; blue shift of tryptophan emission (barycentric mean) with rising concentrations of equimolar ALYREF^1–155 and ORF57^8–120; buffer F (20 mM phosphate pH 6.2, 50 mM NaCl, 50 mM L-Arg+L-Glu, 5 mM EDTA, 1 mM TCEP); apparent Kd, quadratic equation or DynaFit. The conditions noted are these: both partners purified.
The target in the experiment “ORF57^8–120” is B1. Briefly: other fluorescence titration; 14merS RNA titrated into 10 µM 1:1 ALYREF^1–155 - ORF57^8–120 mixture in buffer F; three-equation equilibrium model (DynaFit); the constant of ALYREF for the ORF57-RNA complex inferred from the thermodynamic cycle; apparent. The conditions noted are these: both partners purified.

As for B1, the Kd in experiment [1] is 2560 ± 200 nM.

On to B2, for which the “KD of ALYREF for the ORF57-RNA (14merS) complex, inferred from the thermodynamic cycle” value with ORF57^8–120 was found to be 520 nM.
